Results on two substances are retold here after patent US20030175904A1.

What all share (assay): cell-based or functional assay
Assay [1] addresses human PERV-A receptor PHuR-A1 (human) (UniProt Q9HAB3).
Assay [2] addresses human PERV-A receptor PHuR-A2 (human) (UniProt Q9NWF4).
Assay [3] has as its target baboon PERV-A receptor PBaR-A1 (baboon) (UniProt Q863Y8).
Chain of UniProt Q863Y8 (Q863Y8 whole entry): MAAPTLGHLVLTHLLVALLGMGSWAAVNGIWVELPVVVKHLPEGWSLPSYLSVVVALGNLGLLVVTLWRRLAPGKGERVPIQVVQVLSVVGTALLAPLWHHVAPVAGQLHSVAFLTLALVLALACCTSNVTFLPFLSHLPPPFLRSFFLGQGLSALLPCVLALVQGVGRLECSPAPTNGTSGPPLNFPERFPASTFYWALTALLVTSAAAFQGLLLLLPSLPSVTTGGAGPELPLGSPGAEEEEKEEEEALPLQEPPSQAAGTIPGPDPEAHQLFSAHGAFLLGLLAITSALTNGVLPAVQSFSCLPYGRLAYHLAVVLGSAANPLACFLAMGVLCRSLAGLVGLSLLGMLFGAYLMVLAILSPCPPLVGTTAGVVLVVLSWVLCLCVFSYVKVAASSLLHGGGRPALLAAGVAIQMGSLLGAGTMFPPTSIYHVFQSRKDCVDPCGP

Chain of UniProt Q9NWF4 (Q9NWF4 whole entry Q70R/V296M): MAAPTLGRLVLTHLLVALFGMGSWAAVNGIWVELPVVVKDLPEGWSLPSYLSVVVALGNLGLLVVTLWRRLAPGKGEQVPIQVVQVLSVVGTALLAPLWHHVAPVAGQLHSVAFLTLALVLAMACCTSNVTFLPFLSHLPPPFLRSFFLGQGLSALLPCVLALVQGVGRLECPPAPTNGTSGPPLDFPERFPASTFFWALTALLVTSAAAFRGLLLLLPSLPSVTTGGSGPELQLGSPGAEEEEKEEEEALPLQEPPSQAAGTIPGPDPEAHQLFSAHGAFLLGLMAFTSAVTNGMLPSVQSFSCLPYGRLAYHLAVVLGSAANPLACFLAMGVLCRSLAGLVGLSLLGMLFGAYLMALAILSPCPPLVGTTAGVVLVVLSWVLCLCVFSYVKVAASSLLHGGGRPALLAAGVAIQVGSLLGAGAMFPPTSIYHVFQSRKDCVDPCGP
Chain of UniProt Q9HAB3 (Q9HAB3 whole entry G341S): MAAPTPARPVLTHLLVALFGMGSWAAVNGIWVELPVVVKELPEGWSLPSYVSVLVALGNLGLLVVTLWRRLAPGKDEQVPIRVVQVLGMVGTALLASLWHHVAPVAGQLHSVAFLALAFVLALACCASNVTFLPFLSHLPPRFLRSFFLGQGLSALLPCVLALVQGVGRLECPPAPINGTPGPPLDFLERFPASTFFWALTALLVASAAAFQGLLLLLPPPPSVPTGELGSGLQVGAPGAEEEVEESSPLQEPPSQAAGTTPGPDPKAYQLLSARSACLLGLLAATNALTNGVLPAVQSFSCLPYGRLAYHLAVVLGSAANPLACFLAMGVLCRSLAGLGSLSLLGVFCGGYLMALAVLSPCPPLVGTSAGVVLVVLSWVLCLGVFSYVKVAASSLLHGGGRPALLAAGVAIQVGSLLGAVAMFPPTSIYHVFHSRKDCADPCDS

Consider “TelCeB PERV-A18 LacZ pseudotype (PERV-A envelope)”, for which the Approximate LacZ pseudotype titer IU/ml in assay [1] worked out at 6 IU/ml; in assay [2], 1000 IU/ml.
With “PERV-A 14/220 envelope (ENV) protein, carried on replication competent recombinant PERV-A/PERV-C virus particles”, the Approximate LacZ pseudotype titer IU/ml in assay [1] came to 4000 IU/ml; in assay [3] it was 6000 IU/ml; in assay [2], 20000 IU/ml.
